Biological target: the molecule itself
Test: SEC; FLAG-purified E3-5xFLAG on Superose 6 in 350 mM NaCl; peak fraction (16 ml, ~230 kDa) analysed by MudPIT

B1: yeast PDC E3, Lpd1-5xFLAG (natural protein, S. cerevisiae, UniProt P09624 22-499, looked up)
chain: TINKSHDVVIIGGGPAGYVAAIKAAQLGFNTACVEKRGKLGGTCLNVGCIPSKALLNNSHLFHQMHTEAQKRGIDVNGDIKINVANFQKAKDDAVKQLTGGIELLFKKNKVTYYKGNGSFEDETKIRVTPVDGLEGTVKEDHILDVKNIIVATGSEVTPFPGIEIDEEKIVSSTGALSLKEIPKRLTIIGGGIIGLEMGSVYSRLGSKVTVVEFQPQIGASMDGEVAKATQKFLKKQGLDFKLSTKVISAKRNDDKNVVEIVVEDTKTNKQENLEAEVLLVAVGRRPYIAGLGAEKIGLEVDKRGRLVIDDQFNSKFPHIKVVGDVTFGPMLAHKAEEEGIAAVEMLKTGHGHVNYNNIPSVMYSHPEVAWVGKTEEQLKEAGIDYKIGKFPFAANSRAKTNQDTEGFVKILIDSKTERILGAHIIGPNAGEMIAEAGLALEYGASAEDVARVCHAHPTLSEAFKEANMAAYDKAIHC
notes: Dihydrolipoamide dehydrogenase (E3, Lpd1), S. cerevisiae BY4741; also called E3-5xFLAG; yPDC-E3
  binding result: binds

Source: paper PMC7769281, “The plasticity of the pyruvate dehydrogenase complex confers a labile structure that is associated with its catalytic activity” (PLoS ONE, 2020)
